Measured values: publication PMC3538539, “Self-Interaction of Human Pex11pβ during Peroxisomal Growth and Division” (PLoS ONE, 2013)
Where a chain is given by its changes, count along the chain named. In names and notes the source's numbering stands.

B1: HsPex11pβ-Myc (natural protein, human, UniProt O96011 1-259, looked up)
chain: MDAWVRFSAQSQARERLCRAAQYACSLLGHALQRHGASPELQKQIRQLESHLSLGRKLLRLGNSADALESAKRAVHLSDVVLRFCITVSHLNRALYFACDNVLWAGKSGLAPRVDQEKWAQRSFRYYLFSLIMNLSRDAYEIRLLMEQESSACSRRLKGSGGGVPGGSETGGLGGPGTPGGGLPQLALKLRLQVLLLARVLRGHPPLLLDVVRNACDLFIPLDKLGLWRCGPGIVGLCGLVSSILSILTLIYPWLRLKP
notes: human Pex11pβ (HsPex11pβ), peroxisomal membrane protein 11B; also called Pex11pβ-Myc (WT); wild type Pex11pβ-Myc; source: COS-7, transfected; cross-linked in cells, then in detergent extract or lysate; not shown: Myc, C-terminal, kept
B2: Pex11pβ-Myc^C18S-C25S-C85S (natural protein, human, UniProt O96011 1-259, looked up)
chain: B1 chain with C18S, C25S, C85S
notes: human Pex11pβ with the three N-terminal cysteines replaced by serine; also called triple mutant; source: COS-7, transfected; cross-linked in cells, then in Triton X-100 extract; not shown: Myc, C-terminal, kept

Assays:
[1] = molecular target: the molecule itself; assay: cross-linking; COS-7 cells fixed with 4% para-formaldehyde 24 h after transfection, postfixation extraction with 0.2% Triton X-100 (or digitonin); extracts, pellets and unfixed lysates on SDS-PAGE, anti-Myc immunoblot
[2] = molecular target: the molecule itself; assay: cross-linking; data not shown: para-formaldehyde fixation, postfixation Triton X-100 extraction, immunoblot

| Protein | stoichiometry N [1] | stoichiometry N [2] |
| --- | --- | --- |
| B1 | 2 |  |
| B2 |  | 2 |
